Results taken from patent publication US20230355720A1, “PHARMACEUTICAL COMPOSITION FOR PREVENTING OR TREATING BONE DISEASES, COMPRISING TRIPLE AGONIST OR CONJUGATE THEREOF HAVING ACTIVITY WITH RESPECT TO ALL OF GLUCAGON, GLP-1 AND GLP RECEPTORS” (HANMI PHARM. CO., LTD., priority 2020, published 2023).
Bridge positions count the residues as written; N and C are the ends. Square brackets hold non-standard residues; d marks the D form. Ends that are not written are not given here. * marks the point of attachment. Acetyl(2-(4-imidazolyl)) = O=C(Cc1c[nH]cn1)*; Aib = CC(C)(N)C(=O)O

Legend:
Assay in all cases: cell-based or functional assay
human GLP-1 receptor = human GLP-1 receptor (human, UniProt P43220 24-463)
human GIP receptor = biological target: T1, human GIP receptor (human, UniProt P48546 22-466)
T1 sequence (looked up): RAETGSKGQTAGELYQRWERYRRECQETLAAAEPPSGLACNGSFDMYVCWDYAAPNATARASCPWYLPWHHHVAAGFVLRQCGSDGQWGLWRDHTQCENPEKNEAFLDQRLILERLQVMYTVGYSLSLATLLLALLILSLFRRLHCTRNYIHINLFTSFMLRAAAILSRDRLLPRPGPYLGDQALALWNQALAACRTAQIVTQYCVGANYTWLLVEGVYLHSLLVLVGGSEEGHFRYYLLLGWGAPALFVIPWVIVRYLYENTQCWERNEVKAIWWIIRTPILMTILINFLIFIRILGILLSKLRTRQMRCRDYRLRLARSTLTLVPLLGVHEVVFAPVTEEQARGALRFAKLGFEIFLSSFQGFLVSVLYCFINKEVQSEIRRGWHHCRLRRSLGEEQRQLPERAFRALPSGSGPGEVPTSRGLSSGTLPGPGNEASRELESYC

human GCG receptor = human GCG receptor (human, UniProt P47871 26-477)
human GCG receptor, sequence (P47871 26-477): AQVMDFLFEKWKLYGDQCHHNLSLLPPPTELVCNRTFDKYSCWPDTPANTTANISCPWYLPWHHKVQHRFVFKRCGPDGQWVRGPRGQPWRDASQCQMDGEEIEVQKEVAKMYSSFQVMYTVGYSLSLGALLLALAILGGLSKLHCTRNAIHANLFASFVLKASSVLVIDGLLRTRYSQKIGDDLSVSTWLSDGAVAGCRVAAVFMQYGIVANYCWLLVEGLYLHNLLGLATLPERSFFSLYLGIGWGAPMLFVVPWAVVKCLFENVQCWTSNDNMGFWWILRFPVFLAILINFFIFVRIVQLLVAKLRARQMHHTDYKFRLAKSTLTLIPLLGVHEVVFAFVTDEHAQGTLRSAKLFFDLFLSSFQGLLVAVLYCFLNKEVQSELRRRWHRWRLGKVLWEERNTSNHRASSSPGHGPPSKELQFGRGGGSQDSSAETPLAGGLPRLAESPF

H[Aib]QGTFTSDVSKYLDGQAAQEFVAWLLAGGGPSSGAPPPSC (not fully specified) [triple agonist of SEQ ID NO: 10]
In vitro activity (%) compared with native peptide, vs GLP-1 (human GLP-1 receptor): 46%
In vitro activity (%) compared with native peptide, vs GIP (human GIP receptor): < 0.1%
In vitro activity (%) compared with native peptide, vs Glucagon (human GCG receptor): < 0.1%

Y[Aib]QGTFTSDYSKALDEKAAKEFVQWLLDQHPSSGQPPPSC (bridge 16-20) [triple agonist of SEQ ID NO: 100]
In vitro activity (%) compared with native peptide, vs GLP-1 (human GLP-1 receptor): 42.2%
In vitro activity (%) compared with native peptide, vs GIP (human GIP receptor): 118%
In vitro activity (%) compared with native peptide, vs Glucagon (human GCG receptor): 12.7%

Y[Aib]QGTFTSDYSKYLDEKRAKEFVQWLLDCHPSSGQPPPS (bridge 16-20) [triple agonist of SEQ ID NO: 97]
In vitro activity (%) compared with native peptide, vs GLP-1 (human GLP-1 receptor): 10.5%
In vitro activity (%) compared with native peptide, vs GIP (human GIP receptor): 2.6%
In vitro activity (%) compared with native peptide, vs Glucagon (human GCG receptor): 62.8%

B1: triple agonist of SEQ ID NO: 88 (peptide)
peptide: {Acetyl(2-(4-imidazolyl))}-[Aib]QGTFTSDYSKYLDEKRQKEFVQWLLNTKC
modifications: bridge 15-19; numbers in words are those of the source; also: ring between positions 16 and 20, type not given here
In vitro activity (%) compared with native peptide, vs GLP-1 (human GLP-1 receptor): 9.6%
In vitro activity (%) compared with native peptide, vs GIP (human GIP receptor): < 0.1%
In vitro activity (%) compared with native peptide, vs Glucagon (human GCG receptor): 0.3%

Y[Aib]QGTFTSDYSKALDEKAAKDFVNWLLDQHPSSGQPPPSC (bridge 16-20) [triple agonist of SEQ ID NO: 102]
In vitro activity (%) compared with native peptide, vs GLP-1 (human GLP-1 receptor): 23.3%
In vitro activity (%) compared with native peptide, vs GIP (human GIP receptor): 58%
In vitro activity (%) compared with native peptide, vs Glucagon (human GCG receptor): 29.5%

H[Aib]QGTFTSDVSSYLDGQAQKEFIAWLVKGC (not fully specified) [triple agonist of SEQ ID NO: 2]
In vitro activity (%) compared with native peptide, vs GLP-1 (human GLP-1 receptor): 5.9%
In vitro activity (%) compared with native peptide, vs GIP (human GIP receptor): < 0.1%
In vitro activity (%) compared with native peptide, vs Glucagon (human GCG receptor): < 0.1%

Y[Aib]QGTFTSDYSKALDEKAAKDFVNWLLDHHPSSGQPPPSC (bridge 16-20) [triple agonist of SEQ ID NO: 99]
In vitro activity (%) compared with native peptide, vs GLP-1 (human GLP-1 receptor): 20.9%
In vitro activity (%) compared with native peptide, vs GIP (human GIP receptor): 57.7%
In vitro activity (%) compared with native peptide, vs Glucagon (human GCG receptor): 14.9%

[Acetyl(2-(4-imidazolyl))]GEGTFTSDLSKYLDSRRQQLFVQWLKAGGPSSGAPPPSHG (not fully specified) [triple agonist of SEQ ID NO: 11]
In vitro activity (%) compared with native peptide, vs GLP-1 (human GLP-1 receptor): 1.4%
In vitro activity (%) compared with native peptide, vs GIP (human GIP receptor): < 0.1%
In vitro activity (%) compared with native peptide, vs Glucagon (human GCG receptor): < 0.1%

Y[Aib]QGTFTSDYSKYLDEKRAKEFVQWLLDHCPSSGQPPPS (bridge 16-20) [triple agonist of SEQ ID NO: 96]
In vitro activity (%) compared with native peptide, vs GLP-1 (human GLP-1 receptor): 34.4%
In vitro activity (%) compared with native peptide, vs GIP (human GIP receptor): 5.2%
In vitro activity (%) compared with native peptide, vs Glucagon (human GCG receptor): 195%

Y[Aib]QGTFTSDYSKYLDEKRAKEFVQWLLCHHPSSGQPPPS (bridge 16-20) [triple agonist of SEQ ID NO: 95]
In vitro activity (%) compared with native peptide, vs GLP-1 (human GLP-1 receptor): 2.1%
In vitro activity (%) compared with native peptide, vs GIP (human GIP receptor): < 0.1%
In vitro activity (%) compared with native peptide, vs Glucagon (human GCG receptor): 0.4%

[Acetyl(2-(4-imidazolyl))][Aib]QGTFTSDYSIAMDEIHQKDFVNWLLAQKC (bridge 16-20; not fully specified) [triple agonist of SEQ ID NO: 92]
In vitro activity (%) compared with native peptide, vs GLP-1 (human GLP-1 receptor): 0.8%
In vitro activity (%) compared with native peptide, vs GIP (human GIP receptor): 0.4%
In vitro activity (%) compared with native peptide, vs Glucagon (human GCG receptor): < 0.1%

[Acetyl(2-(4-imidazolyl))]GQGTFTSDYSIQLDEIAVRDFVEWLKNGGPSSGAPPPSHG (not fully specified) [triple agonist of SEQ ID NO: 14]
In vitro activity (%) compared with native peptide, vs GLP-1 (human GLP-1 receptor): 28%
In vitro activity (%) compared with native peptide, vs GIP (human GIP receptor): < 0.1%
In vitro activity (%) compared with native peptide, vs Glucagon (human GCG receptor): < 0.1%

B2: triple agonist of SEQ ID NO: 89 (peptide)
peptide: {Acetyl(2-(4-imidazolyl))}-[Aib]QGTFTSDYSKYLDEKRQKEFVQWLLDTKC
modifications: bridge 15-19; numbers in words are those of the source; also: ring between positions 16 and 20, type not given here
In vitro activity (%) compared with native peptide, vs GLP-1 (human GLP-1 receptor): 7.1%
In vitro activity (%) compared with native peptide, vs GIP (human GIP receptor): < 0.1%
In vitro activity (%) compared with native peptide, vs Glucagon (human GCG receptor): 0.7%

B3: triple agonist of SEQ ID NO: 94 (peptide)
peptide: {Acetyl(2-(4-imidazolyl))}-[Aib]QGTFTSDYSIAMDEIHQKDFVNWLLNTKC
modifications: bridge 15-19; numbers in words are those of the source; also: ring between positions 16 and 20, type not given here
In vitro activity (%) compared with native peptide, vs GLP-1 (human GLP-1 receptor): 0.5%
In vitro activity (%) compared with native peptide, vs GIP (human GIP receptor): < 0.1%
In vitro activity (%) compared with native peptide, vs Glucagon (human GCG receptor): < 0.1%

Y[Aib]QGTFTSDYSKALDEKAAKEFVNWLLDHHPSSGQPPPSC (bridge 16-20) [triple agonist of SEQ ID NO: 98]
In vitro activity (%) compared with native peptide, vs GLP-1 (human GLP-1 receptor): 28.1%
In vitro activity (%) compared with native peptide, vs GIP (human GIP receptor): 47.1%
In vitro activity (%) compared with native peptide, vs Glucagon (human GCG receptor): 8.2%

B4: triple agonist of SEQ ID NO: 93 (peptide)
peptide: {Acetyl(2-(4-imidazolyl))}-[Aib]QGTFTSDYSKYLDEKRQKEFVNWLLAQKC
modifications: bridge 15-19; numbers in words are those of the source; also: ring between positions 16 and 20, type not given here
In vitro activity (%) compared with native peptide, vs GLP-1 (human GLP-1 receptor): 5.7%
In vitro activity (%) compared with native peptide, vs GIP (human GIP receptor): 0.7%
In vitro activity (%) compared with native peptide, vs Glucagon (human GCG receptor): 0.3%

Y[Aib]QGTFTSDYSKALDEKAAKEFVNWLLDQHPSSGQPPPSC (bridge 16-20) [triple agonist of SEQ ID NO: 101]
In vitro activity (%) compared with native peptide, vs GLP-1 (human GLP-1 receptor): 23.2%
In vitro activity (%) compared with native peptide, vs GIP (human GIP receptor): 40.1%
In vitro activity (%) compared with native peptide, vs Glucagon (human GCG receptor): 13.9%

B5: triple agonist of SEQ ID NO: 87 (peptide)
peptide: {Acetyl(2-(4-imidazolyl))}-[Aib]QGTFTSDYSIAMDEIHQKDFVNWLLNTC
modifications: bridge 15-19; numbers in words are those of the source; also: ring between positions 16 and 20, type not given here
In vitro activity (%) compared with native peptide, vs GLP-1 (human GLP-1 receptor): 0.9%
In vitro activity (%) compared with native peptide, vs GIP (human GIP receptor): < 0.1%
In vitro activity (%) compared with native peptide, vs Glucagon (human GCG receptor): < 0.1%

[Acetyl(2-(4-imidazolyl))][Aib]EGTFTSDYSIAMDEIHQKDFVNWLLAQKC (bridge 16-20; not fully specified) [triple agonist of SEQ ID NO: 90]
In vitro activity (%) compared with native peptide, vs GLP-1 (human GLP-1 receptor): 7.4%
In vitro activity (%) compared with native peptide, vs GIP (human GIP receptor): < 0.1%
In vitro activity (%) compared with native peptide, vs Glucagon (human GCG receptor): < 0.1%

[Acetyl(2-(4-imidazolyl))]GEGTFISDYSIQLDEIAVQDFVEWLLAQKPSSGAPPPSHG [triple agonist of SEQ ID NO: 13]
In vitro activity (%) compared with native peptide, vs GLP-1 (human GLP-1 receptor): < 0.1%
In vitro activity (%) compared with native peptide, vs GIP (human GIP receptor): < 0.1%
In vitro activity (%) compared with native peptide, vs Glucagon (human GCG receptor): < 0.1%

B6: triple agonist of SEQ ID NO: 91 (peptide)
peptide: {Acetyl(2-(4-imidazolyl))}-[Aib]EGTFTSDYSIAMDEIHQKDFVDWLLAEKC
modifications: bridge 15-19; numbers in words are those of the source; also: ring between positions 16 and 20, type not given here
In vitro activity (%) compared with native peptide, vs GLP-1 (human GLP-1 receptor): 31.9%
In vitro activity (%) compared with native peptide, vs GIP (human GIP receptor): 0.3%
In vitro activity (%) compared with native peptide, vs Glucagon (human GCG receptor): 16.8%

[Acetyl(2-(4-imidazolyl))]GEGTFISDLSKYMDEQAVQLFVEWLMAGGPSSGAPPPSHG (not fully specified) [triple agonist of SEQ ID NO: 12]
In vitro activity (%) compared with native peptide, vs GLP-1 (human GLP-1 receptor): 0.4%
In vitro activity (%) compared with native peptide, vs GIP (human GIP receptor): < 0.1%
In vitro activity (%) compared with native peptide, vs Glucagon (human GCG receptor): < 0.1%
